Laboratory results from the supplement of paper PMC11246515.
± gives the standard deviation of the averaged measurements.

Assay: total protein half-life in vivo (active degradation + dilution); higher = more stable protein
[1] = E. coli NCM3722 delta-clpP delta-lon delta-hslV, growth: N-lim chemostat, doubling time 6 h
[2] = E. coli NCM3722 delta-lon, growth: N-lim chemostat, doubling time 6 h
[3] = E. coli NCM3722 delta-clpP, growth: N-lim chemostat, doubling time 6 h
[4] = E. coli NCM3722 delta-hslV, growth: N-lim chemostat, doubling time 6 h
[5] = E. coli NCM3722 delta-smpB, growth: N-lim chemostat, doubling time 6 h
[6] = wild type E. coli NCM3722, growth: C-lim chemostat, doubling time 3 h
[7] = wild type E. coli NCM3722, growth: C-lim chemostat, doubling time 6 h
[8] = wild type E. coli NCM3722, growth: C-lim chemostat, doubling time 12 h
[9] = wild type E. coli NCM3722, growth: N-lim chemostat, doubling time 6 h
[10] = wild type E. coli NCM3722, growth: N-lim chemostat, doubling time 12 h
[11] = wild type E. coli NCM3722, growth: P-lim chemostat, doubling time 6 h
[12] = wild type E. coli NCM3722, growth: P-lim chemostat, doubling time 12 h

Sequence	total protein half-life in vivo [1]	total protein half-life in vivo [2]	total protein half-life in vivo [3]	total protein half-life in vivo [4]	total protein half-life in vivo [5]	total protein half-life in vivo [6]	total protein half-life in vivo [7]	total protein half-life in vivo [8]	total protein half-life in vivo [9]	total protein half-life in vivo [10]	total protein half-life in vivo [11]	total protein half-life in vivo [12]
MIASKFGIGQQVRHSLLGYLGVVVDIDPVYSLSEPSPDELAVNDELRAAPWYHVVMEDDNGLPVHTYLAEAQLSSELQDEHPEQPSMDELAQTIRKQLQAPRLRN [P0AB20]	3.23 ± 0.48 h	1.99 ± 0.27 h	–	–	–	–	–	–	–	–	–	–
MYQPDFPPVPFRSGLYPVVDSVQWIERLLDAGVRTLQLRIKDRRDEEVEADVVAAIALGRRYNARLFINDYWRLAIKHQAYGVHLGQEDLQATDLNAIRAAGLRLGVSTHDDMEIDVALAARPSYIALGHVFPTQTKQMPSAPQGLEQLARHVERLADYPTVAIGGISLARAPAVIATGVGSIAVVSAITQAADWRLATAQLLEIAGVGDE	6.1 ± 1.1 h	4.173 ± 0.028 h	3.05 ± 0.11 h	3.34 ± 0.23 h	2.77 ± 0.045 h	2.31 ± 0.52 h	4.76 ± 0.58 h	6.78 ± 0.74 h	3.01 ± 0.54 h	5.18 ± 0.5 h	2.01 ± 0.57 h	3.48 ± 0.66 h
MPLSAQQLAAQKNLSYVLAEKLAQRILKGEYEPGTILPGEIELGEQFGVSRTAVREAVKTLTAKGMVLPRPRIGTRVMPQSNWNFLDQELLTWWMTEENFHQVIDHFLVMRICLEPQACLLAATVGTAEQKAHLNTLMAEMAALKENFRRERWIEVDMAWHEHIYEMSANPFLTSFASLFHSVYHTYFTSITSDTVIKLDLHQAIVDAIIQSDGDAAFKACQALLRSPDK	4.46 ± 0.8 h	6.07 ± 0.2 h	6.01 h	5.31 h	5.77 ± 0.38 h	2.88 h	6.4 ± 1.1 h	12.2 h	3 h	10.5 h	4.72 ± 1.2 h	11.4 ± 0.35 h
MRYPVDVYTGKIQAYPEGKPSAIAKIQVDGELMLTELGLEGDEQAEKKVHGGPDRALCHYPREHYLYWAREFPEQAELFVAPAFGENLSTDGLTESNVYMGDIFRWGEALIQVSQPRSPCYKLNYHFDISDIAQLMQNTGKVGWLYSVIAPGKVSADAPLELVSRVSDVTVQEAAAIAWHMPFDDDQYHRLLSAAGLSKSWTRTMQKRRLSGKIEDFSRRLWGK	4.688 ± 0.014 h	5.77 ± 0.072 h	4.89 ± 0.61 h	4.614 ± 0.023 h	4.46 ± 0.23 h	3.04 ± 0.29 h	6.38 ± 1.3 h	9.06 ± 0.23 h	4.7 ± 0.19 h	7.96 ± 1.1 h	5.64 ± 0.12 h	12 ± 0.28 h
MTKIIAVTACPSGVAHTYMAAEALESAAKAKGWEVKVETQGSIGLENELTAEDVASADMVILTKDIGIKFEERFAGKTIVRVNISDAVKRADAIMSKIEAHLAQTA	4.85 ± 0.3 h	–	5.65 h	–	–	–	–	8.01 ± 8.9 h	–	–	–	–
MSALFLAIPLTIFVLFVLPIWLWLHYSNRSGRSELSQSEQQRLAQLADEAKRMRERIQALESILDAEHPNWRDR [P0AFM9]	6.51 ± 0.1 h	5.01 ± 1.7 h	6.06 h	6.22 ± 0.43 h	6.04 ± 0.43 h	2.84 ± 0.24 h	5.55 ± 1.4 h	13.4 ± 2.2 h	6.02 ± 0.28 h	–	4.5 ± 1.6 h	12.1 ± 0.9 h
MIDYKKNLLFILVFISGFILFTVYSYTAEKMIYNETCTANWVIFNDQGRANLTIDFMYNKKNKTGTVALSGTWQQGNRESKSIRRNIEYTWIENYDTAHLTSKKVNKFEIMDQVDDDRLAQLIPDFYVFPEKSVSYNILKQGKHAFILSIGNRAIMHCAR	–	–	–	–	–	–	–	> 16 h	–	–	–	–
